The binders below were run against recombinant huCLDN18.2-Fc (Sino Biological, P/N: 20047-H02H) (human) (assay: KinExA 4000 equilibrium, antibody constant, recombinant huCLDN18.2-Fc titrated).

Kd | Binder
1.7 nM | YL-G2-B (antibody, human IgG1, kappa) heavy: EVQLQQSGPELEKPGASVKISCKASGYSFTGYKMNWVKQSNGKSLEWIGNIDPYYGGTTYNQKFKGKATLTVDKSSSTAYMQLKSLTSEDSAVYYCARYGKGNTMDYWGQGTSVTVSSASTKGPSVFPLAPSSKSTSGGTAALGCLVKDYFPEPVTVSWNSGALTSGVHTFPAVLQSSGLYSLSSVVTVPSSSLGTQTYICNVNHKPSNTKVDKRVEPKSCDKTHTCPPCPAPELVGGPSVFLLPPKPKDTLMISRTPEVTCVVVDVSHEDPEVKFNWYVDGVEVHNAKTKPPEEQYNSTLRVVSVLTVLHQDWLNGKEYKCKVSNKALPAPIEKTISKAKGQPREPQVYTLPPSREEMTKNQVSLTCLVKGFYPSDIAVEWESNGQPENNYKTTPLVLDSDGSFFLYSKLTVDKSRWQQGNVFSCSVMHEALHNHYTQKSLSLSPGK light: DIVMTQSPSSLTVTAGEKVTMSCKSSQSLLNSGNQKNYLTWYQQRPGQPPKLLIYWASTRESGVPVRFTGSGSGTDFTLTISSVQAEDLAVYYCQNAYIYPLTFGTGTKLELKRTVAAPSVFIFPPSDEQLKSGTASVVCLLNNFYPREAKVQWKVDNALQSGNSQESVTEQDSKDSTYSLSSTLTLSKADYEKHKVYACEVTHQGLSSPVTKSFNRGEC
3.8 nM | YL-G2-C (antibody, human IgG1, kappa) heavy: QIQLVQSGPELRKPGETVKISCKASGFPFTTDGMSWVKQAPGKGLKWMGWINTYSGVPTYADDFKGRVAFSLETSASTAYLQIKNLKNEDTATYFCARFRRGNALDNWGQGTSVTVSSASTKGPSVFPLAPSSKSTSGGTAALGCLVKDYFPEPVTVSWNSGALTSGVHTFPAVLQSSGLYSLSSVVTVPSSSLGTQTYICNVNHKPSNTKVDKRVEPKSCDKTHTCPPCPAPELVGGPSVFLLPPKPKDTLMISRTPEVTCVVVDVSHEDPEVKFNWYVDGVEVHNAKTKPPEEQYNSTLRVVSVLTVLHQDWLNGKEYKCKVSNKALPAPIEKTISKAKGQPREPQVYTLPPSREEMTKNQVSLTCLVKGFYPSDIAVEWESNGQPENNYKTTPLVLDSDGSFFLYSKLTVDKSRWQQGNVFSCSVMHEALHNHYTQKSLSLSPGK light: DIVMTQSPSSLTVTAGEKVTMSCKSSQSLLNSGNQKNYLTWYQQKPGQPPKLLIYWASTRESGVPDRFTGSGSGTDFTLTISSVQAEDLAIYYCQNNYFYPLTFGAGTRLELKRTVAAPSVFIFPPSDEQLKSGTASVVCLLNNFYPREAKVQWKVDNALQSGNSQESVTEQDSKDSTYSLSSTLTLSKADYEKHKVYACEVTHQGLSSPVTKSFNRGEC
6.4 nM | YL-G2-D (antibody, human IgG1, kappa) heavy: QLQQSGPELEKPGASVKISCKASGYSFTGYKMNWVKQSNGESLEWIGNIDPYYGDTTYTQKFKGKATFTVDTSSSTAYMQLKSLTSEDSAVYFCARYNRGNTMDYWGQGTSVTVSSASTKGPSVFPLAPSSKSTSGGTAALGCLVKDYFPEPVTVSWNSGALTSGVHTFPAVLQSSGLYSLSSVVTVPSSSLGTQTYICNVNHKPSNTKVDKRVEPKSCDKTHTCPPCPAPELVGGPSVFLLPPKPKDTLMISRTPEVTCVVVDVSHEDPEVKFNWYVDGVEVHNAKTKPPEEQYNSTLRVVSVLTVLHQDWLNGKEYKCKVSNKALPAPIEKTISKAKGQPREPQVYTLPPSREEMTKNQVSLTCLVKGFYPSDIAVEWESNGQPENNYKTTPLVLDSDGSFFLYSKLTVDKSRWQQGNVFSCSVMHEALHNHYTQKSLSLSPGK light: DIVMTQSPSSLTVTAGEKVTLSCKSSQSLLNSGNQKNYLTWYQQRPGQPPKLLIYWASTRESGVPVRFTGSGSGADFTLTISSVQAEDLAVYFCQNAYFYPLTFGTGTKLELRRTVAAPSVFIFPPSDEQLKSGTASVVCLLNNFYPREAKVQWKVDNALQSGNSQESVTEQDSKDSTYSLSSTLTLSKADYEKHKVYACEVTHQGLSSPVTKSFNRGEC

— US20250277025A1
